Biological target: T1, Full-length MukF (E. coli, UniProt P60293 1-440)
T1 sequence (looked up): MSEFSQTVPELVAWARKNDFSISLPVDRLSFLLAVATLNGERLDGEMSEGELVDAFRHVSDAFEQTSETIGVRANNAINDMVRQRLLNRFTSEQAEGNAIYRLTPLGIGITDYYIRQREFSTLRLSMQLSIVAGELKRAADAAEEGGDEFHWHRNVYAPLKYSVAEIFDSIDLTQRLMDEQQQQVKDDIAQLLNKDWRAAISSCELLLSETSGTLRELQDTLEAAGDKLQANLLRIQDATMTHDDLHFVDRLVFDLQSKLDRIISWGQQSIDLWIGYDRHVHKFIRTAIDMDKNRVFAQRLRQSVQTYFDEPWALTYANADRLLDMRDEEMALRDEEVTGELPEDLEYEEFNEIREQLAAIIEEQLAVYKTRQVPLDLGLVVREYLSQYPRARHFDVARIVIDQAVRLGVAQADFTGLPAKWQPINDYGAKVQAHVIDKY
Assay: AUC

stoichiometry N: 2 MukE per MukF
B1: MukE-DRER (MukE-D196A/R198A/E199S/R202S) (natural protein, E. coli, UniProt P22524 10-234, looked up)
chain: MPVKLAQALANPLFPALDSALRSGRHIGLDELDNHAFLMDFQEYLEEFYARYNVELIRAPEGFFYLRPRSTTLIPRSVLSELDMMVGKILCYLYLSPERLANEGIFTQQELYDELLTLADEAKLLKLVNNRSTGSDVDRQKLQEKVRSSLNRLRRLGMVWFMGHDSSKFRITESVFRFGADVRAGDAPASAQSRLIRDGEAMPIENHLQLNDETEENQPDSGEEE

Reference: PMC3482342 (Journal of molecular biology, 2011)
